Assay results taken from patent US20260209318A1 (NATIONAL UNIVERSITY OF SINGAPORE, published 2026).
Positions count from the first letter of the chain named. In names and notes the source's numbering stands.

B1: Ab1 (B11.2) (antibody, V domains shown)
VH: EVQLVESGGGLVQPGGSLRLSCAASEIIVSRNYMTWVRQAPGKGLEWLAVLYAGGSSFYADSVKGRFTISRDNSKNTLFLQMNSLRAEDTAVYYCARDLSLSGGFDYWGQGALVTVSS
VL: DIQLTQSPSFLSASVGDRVTITCRASQGISNYLAWYQQNPGKAPKLLIYAVSTLHSGVPSRFSGSGSGTEFTLTISSLQPEDFATYYCQHLNTDSCTFGQGTKLEIK
B2: Ab2 (H12.2) (antibody, V domains shown)
VH: EFQLVESGGRLVRPGGSLRLSCVASEIIVSRNYMSWIRQAPGKGLEWVSILYAGGTTYYADSVKGRFTISRDNSKNTLYLQLNSLRVEDTAIYYCVRPIVGGRGGMDVWGQGTTVTVSS
VL: DIQMTQSPSSLSASVGDRVTITCQASQDINKYLNWYQQKPGKAPKLLIYDASNLEPGVPSRFSGSGSGTDFVFTITSLQPEDIATYYCHYYDDVPYTFGQGTQLEIK
B3: Ab5 (10x-L8N-c25) (antibody, V domains shown)
VH: B2 VH with E1D, R10G, I28T, L51I, A53P, L78M, V87P, G101R, R103G
VL: B2 VL with S52T, H89Q
B4: Ab41 (10x-L8N-c39) (antibody, V domains shown)
VH: QVQLVQSGAEVKKPGASVKVSCKGSGYTFTDYGISWVRQAPGQGLEWMGWIRAYNGNTDYAQKFQGRVTMTRDTSTTTAYMELRSLRSDDTAVYFCALNLIAAAATPFDHWGQGTLVTVSS
VL: EIVLTQSPGTLSLSRGERATLSCRASQSVSSSYLAWYQQKRGQAPRLLIYGATSRATGIPDRFSGSGSGTDFTLTISRLEPEDFAVYYCQHYGSSPPPFGGGTKVEIR
B5: Ab42 (10x-L8N-c41) (antibody, V domains shown)
VH: EVQLLESGGGLVQPGGSLRLSCAGSGFTFSSYAMSWVRQAPGKGLEWVSSISSSGGLTFYADSVRGRSTISRDHSRNTLYLQMNSLRAEDTALYYCAREQGDSYDDYFDYWGQGTLVTVSS
VL: DIQMTQSPSSLSASVGDRVTITCRASQGIRSSLAWYQQRPGKAPKLLLSAASILESGVPSRFSGSGSGTDYTLTINGLQPDDFATYYCQQYYVTPGITFGGGTKVEIR
B6: Ab43 (10x-L8N-c42) (antibody, V domains shown)
VH: EVQLVESGGGLVKPGGSLRLSCAASGFTFSRHTMNWVRQAPGKGLEWVSSIGGSTPLSFYAESVKGRFSISRDNAKSSLFLQMSSLRADDTAVYYCVRDSIASVTTLFDLWGRGTVVTVSS
VL: DIQMTQSPSSLSASVGDRVTITCRASQTIRNYINWYQQRPGKAPRLLIYDASTLQSGVPSRFSGGGSGTDFTLTISSLEPEDFATYYCQQSYVSPPEDSFGQGTKLEIK
B7: Ab44 (10x-L8N-c53) (antibody, V domains shown)
VH: QVQLQQSGAEVKKPGSSVKVSCESSGGTFTSHAINWVRQAPGQRLEWMGRIIPVLGVAAYAQKFQGRVTLTADKFTSTAYMELSSLRSEDTAVYFCARSAYNYDSSGYHFDYWGQGTLVLVSS
VL: DIQMTQSPSTLSASVGDRVTITCRASQSISNWLAWYQQKPGTAPKLLIFKASTLQSGVPSRFSGSGSGTEFTLTISSLQPDDFATYHCQQYHSSRSFGQGTKVEIK
B8: Ab46 (10x-L8N-c63) (antibody, V domains shown)
VH: QVHLVQSGAEVKKPGSSVKVSCKASGGTFSSHTVSWVRQAPGQGLEWMGRIIPPFGIVNYAQKFQGRVTITADESTSTAYMELSSLSSEDTAVYYCARSNVVVVTEAGWFDPWGQGTLVTVSS
VL: DIQMTQSPSSVSASVGDRVTITCRASQGISSSLAWYQQKPGKAPKVLIFDASTLQSGVPSRFSGSGSGTDFTLTISNLRPEDFATYYCQQAHSFPFTFGPGTKVDIK
B9: Ab47 (10x-L8N-c64) (antibody, V domains shown)
VH: QVQLVQSGAEVKKPGSSVKVSCEASGDTFSRYAITWVRQAPGQGLEWMGRIIPMFGSANYAQKFQGRVSFTADKSTSTASMELSSLRSEDTAVYYCATSPYYSDSGGYYCDYWGQGSLVTVSS
VL: DIQMTQSPSSLSASVGDRVTITCRASQGISNYLAWYQQKPGKAPKLLLYGASRLQSGVPSRFSGSGSGTDYTLTISSLQPEDFATFYCQQYYSAPRTFGQGTKVEIK
B10: Ab48 (10x-L8N-c72) (antibody, V domains shown)
VH: QVQLQQWGAGLLKPSETLSLTCTVYGGSISGYYWNWIRQPPGKGLEWIGEIDHSGNTNYNSSLKSRITIALDTSKKEISLKVTSVTAADTAVYYCARLDYYHYSQDAWGQGTTVTVSS
VL: EIVLTQSPDFQSVTPKERVTITCRASQSIGASLHWYQLKPNQSPKLLIKYASQSISGVPSRFSGSGSGTDFTLTISSLEAEDAATYYCLQSSNLYSFGQGTKLEIK
B11: Ab49 (10x-L8N-c73) (antibody, V domains shown)
VH: QVQLVQSGAEVKKPGSSVKVSCKASGGTFTTYAIAWVRQAPGQGLEWMGRIIPTLDNPNYAQKFQGRVSITADKSTGTSYMELRSLRSDDTAVYYCAHVSYDSSGPHLSWYFNLWGRGTLITVSS
VL: DIQMTQSPSTLSASVGDRVTITCRASQSIPSRLAWYQHKPGEAPKLLIYEASTLESGVPSRFSGSGSGTEFTLTITSLQPDDFATYFCQGWNAFGGGTKVEIK
B12: Ab50 (10x-L8N-c84) (antibody, V domains shown)
VH: QVQLVQSGAAVKKPGSSVKVSCEASGGTFSRFAVNWVRQAPGQGLEWMGRIIPLFAIANYPQRFQGRVIMSADRSTNITYMELSRLTSEDTAVYYCAREIDTVIDPAMDVFHGMEVWGQGTTVIVSS
VL: QSVLTQPPSASGTPGQRVTISCSGRSSNIGSNYVHWYQQLPGTAPKLLIYRNNQRPSGVPDRFSGSKSGTSASLAISGLRSEDEADYYCAGWDDSLSGAVFGGGTKLSVL
B13: Ab51 (10x-L8N-c86) (antibody, V domains shown)
VH: EVQLVESGGGLVKPGESLRLSCAASGFTFSSSSLNWVRQAPGKGLEWVSSISISGDYTYYADSVKGRFTISRDNGKNSVYLQMDRLRVEDTAMYYCARDRFGFYDMLAHSYNVGFFQSWGQGTLVAVSS
VL: DIRMTQSPSSLSASVGDSVTITCRASQDITNYLAWFQQKPGKAPKSLIYSASILQSGVPSKFSGSGSGTDFTLTISSLQPEDFATYYCQQYLTYPITFGQGTRLEIK
B14: Ab52 (10x-L8N-c89) (antibody, V domains shown)
VH: QVQLVQSGSEVKKPGSSVKVSCRASGDTFSSHSLSWVRQAPGQGLEWMGRIVPMFGITNYAQNFQGRVTFTADKSTSTAYMELSSLRSEDTAVYYCARAGTMITFGGLTDDGQLNWFDPWGQGTLVTVSS
VL: DVVLTQSPLSLSVTLGQPASISCRSSQSLEYSDGDTYLNWFHQRPGQSPRRLIYKVSNRDSGVPDRFSGSGAGTDFTLKISKVEAEDVGVYYCMQGTNWPPNFGPGTKVDIK

Molecular target: BQ.1.1 spike protein (SARS-CoV-2 variant BQ.1.1, UniProt P0DTC2 14-1273)
Assay: cell-based or functional assay

Binder | IC50 (pVNT) | concentration required to effectively neutralize (pVNT) | times less than the concentration of E7
B1 | ≤ 300 ng/ml | 16.5 ng/ml | 
B2 | ≤ 300 ng/ml | 16.6 ng/ml | 
B3 | ≤ 300 ng/ml | 57.5 ng/ml | ~10 times
B4 | ≤ 550 ng/ml |  | 
B5 | ≤ 550 ng/ml |  | 
B6 | ≤ 550 ng/ml |  | 
B7 | ≤ 550 ng/ml |  | 
B8 | ≤ 550 ng/ml |  | 
B9 | ≤ 550 ng/ml |  | 
B10 | ≤ 550 ng/ml |  | 
B11 | ≤ 550 ng/ml |  | 
B12 | ≤ 550 ng/ml |  | 
B13 | ≤ 550 ng/ml |  | 
B14 | ≤ 550 ng/ml |  | 

Molecular target: XBB.1 spike protein (SARS-CoV-2 variant XBB.1, UniProt P0DTC2 14-1273)
Assay: cell-based or functional assay

Binder | concentration required to effectively neutralize (pVNT) | times less than the concentration of E7
B1 | 11.6 ng/ml | 
B2 | 8.5 ng/ml | ~40 times
B3 | 40.8 ng/ml | ~8 times

Molecular target: SARS-CoV-2 XBB.1 RBD (SARS-CoV-2 XBB.1, UniProt P0DTC2 319-541)
Assay: multiplex sVNT, RBD-coated beads, PE-hACE2 as competitor

Binder | binding result
B2 | binds
